The text below walks through data of US20070166308A1 (Amgen, published 2007).

In experiment [1] the target is T1, MAdCAM-IgG1 Fc fusion protein (human).
T1 construct: Expressed in CHO-DHFR cells; also called MAdCAM-IgFc; soluble MAdCAM (in the sandwich ELISA)
The experiment in a line: MAdCAM-IgG1 Fc fusion / JY cell adhesion assay, mean IC50. On the procedure:
(§1) The cells were washed twice with RPMI 1640 media (Gibco) containing 2 mM L-glutamine (Gibco) by centrifugation (240 g), resuspending the final cell pellet at 2×10⁶ cells/mL in RPMI 1640 for Calcein AM loading. Calcein AM (Molecular Probes #C-3099) was added to the cells as a 1:200 dilution in DMSO (ca. final concentration 5 μM) and the cells protected from light during the course of the incubation (37° C. for 30 min). During this cell incubation step the antibodies to be tested, were diluted as follows: for single dose testing, the antibodies were made up to 3 μg/mL (1 μg/mL final) in 0.1 mg/mL BSA (Sigma#A3059) in PBS; for full IC₅₀ curves, the antibodies were diluted in 0.1 mg/mL BSA/PBS, with 3 μg/mL (1 μg/mL final) being the top concentration, then doubling dilutions (1:2 ratio) across the plate. The final well of the row was used for determining total binding, so 0.1 mg/ml BSA in PBS was used.
(§2) After blocking, the plate contents were flicked out and 50 μL of antibodies/controls were added to each well and the plate incubated at 37° C. for 20 min. During this time, Calcein-loaded JY cells were washed once with RPMI 1640 media containing 10% fetal bovine serum and once with 1 mg/mL BSA/PBS by centrifugation, resuspending the final cell pellet to 1×10⁶/mL in 1 mg/mL BSA/PBS. 100 μL of cells were added to each well of the U bottomed plate, the plate sealed, briefly centrifuged (1000 rpm for 2 min) and the plate then incubated at 37° C. for 45 min. At the end of this time, the plates were washed with a Skatron plate washer and fluorescence measured using a Wallac Victor² 1420 Multilabel Reader (excitation λ 485 nm, emission λ 535 nm count from top, 8 mm from bottom of plate, for 0.1 sec with normal emission aperture). For each antibody concentration, percent adhesion was expressed as a percentage of maximal fluorescence response in the absence of any antibody minus fluorescence associated with non-specific binding. The IC₅₀ value is defined as the anti-MAdCAM antibody concentration at which the adhesion response is decreased to 50% of the response in the absence of anti-MAdCAM antibody.

The target of experiment [2] is T1, MAdCAM-IgG1 Fc fusion protein. The experiment in a line: adhesion of calcein-loaded α4β7+ JY cells to coated MAdCAM-IgG1 Fc, blocked by antibody. How it is done:
as §1
as §2, with “The IC₅₀ value is defined as the anti-MAdCAM antibody concentration at which the adhesion response is decreased to 50% of the response in the absence of anti-MAdCAM antibody.” left out

Experiment [3] concerns the target Fibronectin cell binding fragment (110 Kd, Europa Bioproducts Ltd, Cat. No. UBF4215-18) (UniProt P02751-1 722-1635). Nature of the experiment: cell-based or functional assay.
The next experiment addresses T2, VCAM (Panvera) (UniProt P19320 25-698, limits assumed).
T2 sequence (looked up): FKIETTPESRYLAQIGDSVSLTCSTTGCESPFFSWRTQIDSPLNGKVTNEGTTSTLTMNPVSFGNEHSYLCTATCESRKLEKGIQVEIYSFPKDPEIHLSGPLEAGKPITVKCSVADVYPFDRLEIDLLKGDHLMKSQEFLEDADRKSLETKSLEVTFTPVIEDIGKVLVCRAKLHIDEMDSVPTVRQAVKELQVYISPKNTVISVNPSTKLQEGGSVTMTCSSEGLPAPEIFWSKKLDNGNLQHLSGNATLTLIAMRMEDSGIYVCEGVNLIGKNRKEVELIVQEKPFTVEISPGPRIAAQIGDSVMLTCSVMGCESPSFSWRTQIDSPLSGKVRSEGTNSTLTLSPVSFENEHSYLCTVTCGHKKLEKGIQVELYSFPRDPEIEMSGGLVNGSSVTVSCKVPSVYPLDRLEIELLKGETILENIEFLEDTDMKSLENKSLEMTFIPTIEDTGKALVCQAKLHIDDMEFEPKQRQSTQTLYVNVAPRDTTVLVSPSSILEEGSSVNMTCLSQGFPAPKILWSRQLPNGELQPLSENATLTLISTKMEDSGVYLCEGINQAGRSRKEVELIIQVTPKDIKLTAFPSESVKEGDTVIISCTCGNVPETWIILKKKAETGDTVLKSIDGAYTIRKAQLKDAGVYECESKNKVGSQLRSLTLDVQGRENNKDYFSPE
The experiment in a line: cell-based or functional assay.

T1 sequence (chain, as listed by the source limits assumed): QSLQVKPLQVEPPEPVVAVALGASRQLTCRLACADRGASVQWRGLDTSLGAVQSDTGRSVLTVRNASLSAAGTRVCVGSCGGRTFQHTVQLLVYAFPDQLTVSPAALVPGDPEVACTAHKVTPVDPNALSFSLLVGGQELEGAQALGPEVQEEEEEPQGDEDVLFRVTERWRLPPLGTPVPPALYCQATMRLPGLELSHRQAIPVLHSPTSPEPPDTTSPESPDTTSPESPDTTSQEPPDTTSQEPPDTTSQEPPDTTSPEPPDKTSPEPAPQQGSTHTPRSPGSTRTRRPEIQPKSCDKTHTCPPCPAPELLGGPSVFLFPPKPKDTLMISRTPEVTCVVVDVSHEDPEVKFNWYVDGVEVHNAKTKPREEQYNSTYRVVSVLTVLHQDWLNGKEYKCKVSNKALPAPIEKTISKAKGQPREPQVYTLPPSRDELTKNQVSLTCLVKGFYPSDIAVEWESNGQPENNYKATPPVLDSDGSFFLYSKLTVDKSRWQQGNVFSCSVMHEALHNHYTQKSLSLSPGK
Fibronectin cell binding fragment (110 Kd, Europa Bioproducts Ltd, Cat. No. UBF4215-18), sequence (P02751 other isoform, or with tags, fused parts or gaps limits assumed): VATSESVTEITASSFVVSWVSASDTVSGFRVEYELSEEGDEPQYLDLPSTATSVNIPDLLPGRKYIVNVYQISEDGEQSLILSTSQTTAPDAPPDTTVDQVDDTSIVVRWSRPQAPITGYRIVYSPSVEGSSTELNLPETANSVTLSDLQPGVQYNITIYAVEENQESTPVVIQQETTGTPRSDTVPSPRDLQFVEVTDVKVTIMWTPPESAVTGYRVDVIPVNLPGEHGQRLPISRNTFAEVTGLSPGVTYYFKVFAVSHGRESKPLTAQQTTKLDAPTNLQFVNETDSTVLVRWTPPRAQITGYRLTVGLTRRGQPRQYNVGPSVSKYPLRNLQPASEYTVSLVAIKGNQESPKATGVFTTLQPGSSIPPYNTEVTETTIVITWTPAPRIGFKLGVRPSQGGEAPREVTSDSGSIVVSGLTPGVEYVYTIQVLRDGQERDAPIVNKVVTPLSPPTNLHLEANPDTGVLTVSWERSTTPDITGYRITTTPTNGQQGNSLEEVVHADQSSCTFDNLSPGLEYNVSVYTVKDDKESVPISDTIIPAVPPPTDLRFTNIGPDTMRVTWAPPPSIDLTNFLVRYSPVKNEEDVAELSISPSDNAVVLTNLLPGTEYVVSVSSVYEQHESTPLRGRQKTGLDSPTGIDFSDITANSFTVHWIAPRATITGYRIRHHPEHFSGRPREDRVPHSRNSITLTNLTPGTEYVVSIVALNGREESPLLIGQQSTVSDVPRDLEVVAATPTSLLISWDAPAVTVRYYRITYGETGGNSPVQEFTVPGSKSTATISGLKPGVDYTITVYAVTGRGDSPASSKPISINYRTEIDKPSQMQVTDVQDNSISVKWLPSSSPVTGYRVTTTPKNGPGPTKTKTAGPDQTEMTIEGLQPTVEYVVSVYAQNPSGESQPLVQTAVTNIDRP

B1: anti-MAdCAM monoclonal antibody 7.26.4 (antibody, human IgG2, kappa, V domains shown)
VH: QVQLVQSGAEVKKPGASVKVSCEASGYTFTSYGIDWVRQAPGQGLEWMGWISVYSGNTNYAQKLQGRVTMSTDTSTSTAYMELRSLRSDDTAVYYCAREGSSSSGDYYYGMDVWGQGTTVTVSS
VL: DIVMTQTPLSLSVTPGQPASISCKSNQSLLYSDGKTYLFWYLQKPGQPPQLLIYEVSNRFSGVPDRFSGSGSGTDFTLKISRVEAEDVGVYYCMQSIQLPWTFGQGTKVEIKR
notes: fully human IgG2 kappa from hybridoma; signal peptide left out; kappa chain glycosylation confirmed
Take B1: the IC50 in experiment [1] is 0.021 µg/mL; in experiment [2], under 0.1 µg/mL. In addition, the “inhibition of adhesion of α4β1+/α5β1+ Jurkat T-cells to coated Fibronectin cell binding fragment” value in experiment [3] is over 100 fold. The “inhibition of adhesion of α4β1+/α5β1+ Jurkat T-cells to coated VCAM” value with VCAM (Panvera) is over 100 fold.

B2: anti-MAdCAM monoclonal antibody 9.8.2 (antibody, human IgG4, kappa, V domains shown)
VH: QVQLVESGGGVVQPGRSLRLSCAASGFTFSSYGMHWVRQAPGKGLEWVAVIWYDGSNEYYADSVKGRFTISRDNSKNTLYLQMNSLRAEDTAVYYCARGAYHFAYWGQGTLVTVSS
VL: DIQMTQSPSSLSASVGDRVTITCQASQDISNYLNWYQQKPGKAPKLLIYDASNLETGVPSRFSGSGSGTDFTFTISSLQPEDIATYSCQHSDNLSITFGQGTRLEIKR
notes: fully human IgG4 kappa from hybridoma; signal peptide left out; kappa chain stained positive for glycosylation
B2: the IC50 in experiment [2] was under 0.1 µg/mL. Also, in experiment [3], the “inhibition of adhesion of α4β1+/α5β1+ Jurkat T-cells to coated Fibronectin cell binding fragment” value is over 100 fold. In addition, the “inhibition of adhesion of α4β1+/α5β1+ Jurkat T-cells to coated VCAM” value with VCAM (Panvera) is over 100 fold.
